US6416738B1, “Pretargeting methods and compounds” (NeoRx Corporation, priority 1973, dated 2002)

Experiments:
[1] = molecular target: T1, NR-LU-10 antigen (Homo sapiens, UniProt P16422); experiment: NR-LU-10 tumor tissue reactivity (Table A); type: binding
T1 construct: Positive NR-LU-10 tissue reactivity indicates NR-LU-10 antigen expression by such tissues; from tissue; host or cells: carcinoma and normal tissue specimens
T1 sequence (P16422 24-314): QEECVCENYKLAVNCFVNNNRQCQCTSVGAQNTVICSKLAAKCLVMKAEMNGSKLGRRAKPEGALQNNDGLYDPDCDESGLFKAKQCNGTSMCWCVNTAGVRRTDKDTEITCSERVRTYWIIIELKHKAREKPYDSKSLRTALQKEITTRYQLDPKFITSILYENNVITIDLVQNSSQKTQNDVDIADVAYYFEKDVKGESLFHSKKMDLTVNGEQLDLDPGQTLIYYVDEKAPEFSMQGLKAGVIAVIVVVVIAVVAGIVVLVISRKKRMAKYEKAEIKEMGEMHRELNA
Source text: Radioimmunoassays, immunoprecipitation and Fluorescence-Activated Cell Sorter (FACS) analysis were used to obtain reactivity profiles of NR-LU-10. The NR-LU-10 target antigen was present on either fixed cultured cells or in detergent extracts of various types of cancer cells. For example, the NR-LU-10 antigen is found in small cell lung, non-small cell lung, colon, breast, renal, ovarian, pancreatic, and other carcinoma tissues. Tumor reactivity of the NR-LU-10 antibody is set forth in Table A, while NR-LU-10 reactivity with normal tissues is set forth in Table B. The values in Table B are obtained as described below. Positive NR-LU-10 tissue reactivity indicates NR-LU-10 antigen expression by such tissues.

[2] = Human clinical trials of NR-LU-10; type: in vivo; conditions: over 565 patients
Method: The hybridoma secreting NR-LU-10 was developed by fusing mouse splenocytes immunized with intact cells of a human small cell lung carcinoma with P3×63/Ag8UI murine myeloma cells. After establishing a seed lot, the hybridoma was grown via in vitro cell culture methods, purified and verified for purity and sterility.

B1: NR-LU-10: 150 kilodalton IgG2b monoclonal antibody recognizing an approximately 40 kilodalton glycoprotein antigen expressed on most carcinomas (antibody, V domains shown)
VH: EVQLQQSGAELVKPGASVRLSCTASGFNIKDTYMHWVIERPEQGLEWIGRIDPANGNTKCDPKFQGKATITADTSSNTAYLQLSSLTSEDTAVYYCSREVLTGTWSLDYWGQGTSVTVSS
VL: DIQMIQSPSSMFASLGDRVSLSCRASQGIRGNLDWYQQKPGGTIKLLIYSTSNLNSGVPSRFSGSGSGSDYSLTISSLDSEDFADYYCLQRNAYPYTFGGGTKLEIK
# Pos/Exam ([1]; Breast Adenocarcinoma): 23/23
Intensity Avg. (rated 0-3) ([1]; Breast Adenocarcinoma): 2.9
Percent Avg. (cells stained) ([1]; Breast Adenocarcinoma): 97%
Uniformity Avg. (rated 0-3) ([1]; Breast Adenocarcinoma): 2.8
# Pos/Exam ([1]; Colon Carcinoma): 12/12
Intensity Avg. (rated 0-3) ([1]; Colon Carcinoma): 2.9
Percent Avg. (cells stained) ([1]; Colon Carcinoma): 98%
Uniformity Avg. (rated 0-3) ([1]; Colon Carcinoma): 2.9
# Pos/Exam ([1]; Liposarcoma): 0/2
Intensity Avg. (rated 0-3) ([1]; Liposarcoma): 0
Percent Avg. (cells stained) ([1]; Liposarcoma): 0%
Uniformity Avg. (rated 0-3) ([1]; Liposarcoma): 0
# Pos/Exam ([1]; Lung Adenocarcinoma): 8/8
Intensity Avg. (rated 0-3) ([1]; Lung Adenocarcinoma): 3
Percent Avg. (cells stained) ([1]; Lung Adenocarcinoma): 100%
Uniformity Avg. (rated 0-3) ([1]; Lung Adenocarcinoma): 2.2
# Pos/Exam ([1]; Lung Small Cell Carcinoma): 2/2
Intensity Avg. (rated 0-3) ([1]; Lung Small Cell Carcinoma): 3
Percent Avg. (cells stained) ([1]; Lung Small Cell Carcinoma): 100%
Uniformity Avg. (rated 0-3) ([1]; Lung Small Cell Carcinoma): 2
# Pos/Exam ([1]; Lung Squamous Cell Carcinoma): 8/8
Intensity Avg. (rated 0-3) ([1]; Lung Squamous Cell Carcinoma): 2.3
Percent Avg. (cells stained) ([1]; Lung Squamous Cell Carcinoma): 73%
Uniformity Avg. (rated 0-3) ([1]; Lung Squamous Cell Carcinoma): 1.8
# Pos/Exam ([1]; Lymphoma): 0/2
Intensity Avg. (rated 0-3) ([1]; Lymphoma): 0
Percent Avg. (cells stained) ([1]; Lymphoma): 0%
Uniformity Avg. (rated 0-3) ([1]; Lymphoma): 0
# Pos/Exam ([1]; Malignant Melanoma): 0/11
Intensity Avg. (rated 0-3) ([1]; Malignant Melanoma): 0
Percent Avg. (cells stained) ([1]; Malignant Melanoma): 0%
Uniformity Avg. (rated 0-3) ([1]; Malignant Melanoma): 0
# Pos/Exam ([1]; Malignant Melanoma Ocular): 0/2
Intensity Avg. (rated 0-3) ([1]; Malignant Melanoma Ocular): 0
Percent Avg. (cells stained) ([1]; Malignant Melanoma Ocular): 0%
Uniformity Avg. (rated 0-3) ([1]; Malignant Melanoma Ocular): 0
# Pos/Exam ([1]; Osteosarcoma): 1/1
Intensity Avg. (rated 0-3) ([1]; Osteosarcoma): 2
Percent Avg. (cells stained) ([1]; Osteosarcoma): 20%
Uniformity Avg. (rated 0-3) ([1]; Osteosarcoma): 1
# Pos/Exam ([1]; Ovarian Carcinoma): 35/35
Intensity Avg. (rated 0-3) ([1]; Ovarian Carcinoma): 2.9
Percent Avg. (cells stained) ([1]; Ovarian Carcinoma): 100%
Uniformity Avg. (rated 0-3) ([1]; Ovarian Carcinoma): 2.2
# Pos/Exam ([1]; Pancreas Carcinoma): 6/6
Intensity Avg. (rated 0-3) ([1]; Pancreas Carcinoma): 3
Percent Avg. (cells stained) ([1]; Pancreas Carcinoma): 100%
Uniformity Avg. (rated 0-3) ([1]; Pancreas Carcinoma): 2.3
# Pos/Exam ([1]; Prostate Carcinoma): 9/9
Intensity Avg. (rated 0-3) ([1]; Prostate Carcinoma): 2.8
Percent Avg. (cells stained) ([1]; Prostate Carcinoma): 95%
Uniformity Avg. (rated 0-3) ([1]; Prostate Carcinoma): 2
# Pos/Exam ([1]; Renal Carcinoma): 8/9
Intensity Avg. (rated 0-3) ([1]; Renal Carcinoma): 2.2
Percent Avg. (cells stained) ([1]; Renal Carcinoma): 83%
Uniformity Avg. (rated 0-3) ([1]; Renal Carcinoma): 1
# Pos/Exam ([1]; Synovial Sarcoma): 0/1
Intensity Avg. (rated 0-3) ([1]; Synovial Sarcoma): 0
Percent Avg. (cells stained) ([1]; Synovial Sarcoma): 0%
Uniformity Avg. (rated 0-3) ([1]; Synovial Sarcoma): 0
# Pos/Exam ([1]; Undifferentiated Carcinoma): 1/1
Intensity Avg. (rated 0-3) ([1]; Undifferentiated Carcinoma): 2
Percent Avg. (cells stained) ([1]; Undifferentiated Carcinoma): 90%
Uniformity Avg. (rated 0-3) ([1]; Undifferentiated Carcinoma): 2
# Pos/Exam ([1]; Uterine Leiomyosarcoma): 0/1
Intensity Avg. (rated 0-3) ([1]; Uterine Leiomyosarcoma): 0
Percent Avg. (cells stained) ([1]; Uterine Leiomyosarcoma): 0%
Uniformity Avg. (rated 0-3) ([1]; Uterine Leiomyosarcoma): 0
safety in human clinical trials [2]: safely administered
